From paper PMC8092223
pKd: −log10 of the molar value.

Experiments:
[1] = target: PII(S49E), phosphomimetic variant, His8-tagged (Synechocystis sp. PCC 6803) (UniProt Q55247); assay: BLI; Octet K2; His8-tagged PII variant loaded (10 ug/ml) on Ni-NTA sensor tips, free sites blocked with 72 ug/ml PII(ΔT); analyte GST-PirA 125 to 12,000 nM (or tag-free PirA or GST alone); with ADP (0.1 to 2 mM; 2 mM for variants and controls); 30°C; 50 mM Tris-HCl pH 7.4, 150 mM KCl, 2 mM MgCl2, 0.02% lauryldimethylamine oxide, 0.2 mg/ml BSA; KD from concentration versus maximum response
[2] = target: His8-tagged PII protein, PII(WT) (Synechocystis sp. PCC 6803) (UniProt Q55247); assay: as above
[3] = target: His8-tagged PII protein, PII(WT) (Synechocystis sp. PCC 6803) (UniProt Q55247)

- pKd [1]: 5.60
- pKd [2]: 5.54
- NAGK activity (AGPR-coupled assay; 6 ug NAGK, 2.4 ug PII, 0.1 mM arginine, 1 mM ATP, 1 mM ADP) against PirA from 0 to 30 ug [3]: 50%
Substance: GST-tagged PirA (Ssr0692, PII-interacting regulator of arginine synthesis) (natural protein)
